Biological target: T1, recombinant mouse Axl-Fc protein (R and D Systems, cat N° 854-AX/CF) (mouse, UniProt Q00993 19-445)
T1 construct: extracellular domain; Bought construct; also called rmAxl-Fc; murine Axl ECD domain; not shown: Fc portion of the bought fusion (detected by anti-human IgG Fc)
T1 sequence (looked up): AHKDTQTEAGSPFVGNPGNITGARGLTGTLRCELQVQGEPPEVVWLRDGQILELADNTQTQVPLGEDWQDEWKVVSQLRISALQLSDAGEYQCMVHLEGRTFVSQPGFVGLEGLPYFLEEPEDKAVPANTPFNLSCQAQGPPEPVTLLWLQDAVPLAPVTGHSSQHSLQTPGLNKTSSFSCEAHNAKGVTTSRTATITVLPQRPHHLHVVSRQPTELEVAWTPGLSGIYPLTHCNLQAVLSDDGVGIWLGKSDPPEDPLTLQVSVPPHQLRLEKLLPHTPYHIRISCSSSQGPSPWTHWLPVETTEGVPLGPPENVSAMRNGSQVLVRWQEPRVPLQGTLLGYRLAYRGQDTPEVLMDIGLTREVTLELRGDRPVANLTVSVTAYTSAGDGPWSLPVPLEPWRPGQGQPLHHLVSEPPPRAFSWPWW
Test: ELISA on coated rmAxl-Fc
Procedure: Briefly, the recombinant mouse Axl-Fc (R and D Systems, cat N° 854-AX/CF) proteins were coated overnight at 4° C. to Immulon II 96-well plates and, after a 1 h blocking step with a 0.5% gelatine solution, the 110D7, 1003A2, 1024G11, purified antibodies, respectively, were added for an additional 1 h at 37° C. at starting concentration of 5 μg/ml (3.33 10⁻⁸ M). Then ½ serial dilutions were done over 12 columns. Then plates were washed and a goat anti-mouse (Jackson) specific IgG HRP was added for 1 h at 37° C. Reaction development was performed using the TMB substrate solution. The commercial mouse anti-Axl Mab 154 antibody is also used in parallel. Coating controls are performed in presence of a goat anti-human IgG Fc polyclonal serum coupled with HRP (Jackson, ref 109-035-098) and in presence of a HRP-coupled anti-Histidine antibody (R and D Systems, ref: MAB050H). No specific binding is observed in absence of primary antibody (diluant).

Binder | binding result
1024G11 anti-Axl monoclonal antibody (antibody, V domains shown, Murine monoclonal antibody purified from a hybridoma; a mIgG1 isotype control (9G4) is used beside it; also called monoclonal antibody 1024G11 derived from the hybridoma I-4501) VH: EVKLVESGGGLVQPGGSLNLSCAASGFTFSSYSMSWVRQTPEKRLEWVAFISNGGGRTYYPDTVKGRFTFSRDNARNTLYLQMSSLNSEDTAMYFCARGTTESYYAMDYWGQGTSVTVSS VL: DIVMTQSHKFMSTSVGDRVSITCKASQDVITAVAWYQQKPGQSPKLLIYWASTRHTGVPDRFTGSGSGTDYTLTISSVQAEDLALYFCQQHLSTPLTFGAGTKLELK | no binding
1003A2 anti-Axl monoclonal antibody (antibody, V domains shown, Murine monoclonal antibody purified from a hybridoma; a mIgG1 isotype control (9G4) is used beside it; also called monoclonal antibody 1003A2 derived from the hybridoma I-4499) VH: EVKLVESGGGLVQPGGSLKLSCAASGFTFNSYSMSWVRQTPEKRLEWVAYISNGGGRTYYPDTIKGRFTLSRDNDRNTLYLQMSSLKSEDTAMYYCARGTTESYYALDYWGQGTSVTVSS VL: DIVMTQSHKFMSTSLGDRISITCKASQDVITAVAWYQQKPGQSPKLLIYWASTRHTGVPDRFTGSGSGTDYNLTISSVQAEDLALYYCQQHFSTPLTFGAGTKLELK | no binding
